EP4471049A1 (Zealand Pharma A/S, priority 2023, dated 2024)
Read-outs that look alike come from different tables or passages of the source. *1 amine or outer side, *2 acyl side, *3 side chain or, on linkers, in order; H or OH if unused. Bridges are numbered along the chain shown (N, C = ends). [ ]: non-standard residue; d: D form. The star is where a group is joined. 4‑Aminomethyl‑phenylacetyl = 4-aminomethyl-phenylacetyl unit, its amine closes the lactam, O=C(Cc1ccc(CN[*:1])cc1)[*:2]; αMeAla(3-pyridyl) = C[C@](N)(Cc1cccnc1)C(=O)O; NH(4-(3-pyridyl)butyl) = c1cncc(CCCCN*)c1; 2Nal = N[C@@H](Cc1ccc2ccccc2c1)C(=O)O; AEF = NCCOc1ccc(C[C@H](N)C(=O)O)cc1; NMe3Pal = CN[C@@H](Cc1cccnc1)C(=O)O; 3Pal = N[C@@H](Cc1cccnc1)C(=O)O; d3Pal = N[C@H](Cc1cccnc1)C(=O)O; αMeL = CC(C)C[C@](C)(N)C(=O)O; β3hL = CC(C)C[C@H](N)CC(=O)O; Dab = NCC[C@H](N)C(=O)O; Sar = CNCC(=O)O

Legend:
[1] = molecular target: T1, human IL-23R endogenously expressed on DB cells (human, UniProt Q5VWK5 24-629); experiment: cell-based or functional assay
T1 sequence (looked up): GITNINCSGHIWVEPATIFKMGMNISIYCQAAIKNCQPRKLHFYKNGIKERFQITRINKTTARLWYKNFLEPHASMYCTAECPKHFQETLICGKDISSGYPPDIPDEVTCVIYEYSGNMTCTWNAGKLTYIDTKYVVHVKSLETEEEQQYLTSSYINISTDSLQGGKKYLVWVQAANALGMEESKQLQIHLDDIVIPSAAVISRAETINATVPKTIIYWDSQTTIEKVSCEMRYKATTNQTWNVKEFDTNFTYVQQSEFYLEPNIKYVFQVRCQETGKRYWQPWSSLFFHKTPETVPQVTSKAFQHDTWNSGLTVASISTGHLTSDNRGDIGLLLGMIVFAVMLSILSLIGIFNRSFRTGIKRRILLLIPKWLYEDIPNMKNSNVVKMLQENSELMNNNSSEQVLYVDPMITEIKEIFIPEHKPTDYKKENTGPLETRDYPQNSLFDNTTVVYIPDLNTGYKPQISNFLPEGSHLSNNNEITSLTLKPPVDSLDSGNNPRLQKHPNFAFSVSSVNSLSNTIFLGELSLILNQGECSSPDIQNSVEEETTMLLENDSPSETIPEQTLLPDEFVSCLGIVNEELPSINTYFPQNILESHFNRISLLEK

[2] = molecular target: T2, Nluc-IL23R fusion protein (human, UniProt Q5VWK5 22-629); experiment: BRET competition vs TAMRA-labelled peptide, Nluc-IL23R membranes; as to % displacement (hIL-23R binding): test concentration or dose not given here
T2 construct: range 22-629; expressed with a secretion signal in HEK293 cells; used as crude membrane preparation; also called hIL-23R; human IL-23R; not shown: Nanoluc protein from the expression plasmid N1371 (Promega), N-terminal of IL-23R
T2 sequence (looked up): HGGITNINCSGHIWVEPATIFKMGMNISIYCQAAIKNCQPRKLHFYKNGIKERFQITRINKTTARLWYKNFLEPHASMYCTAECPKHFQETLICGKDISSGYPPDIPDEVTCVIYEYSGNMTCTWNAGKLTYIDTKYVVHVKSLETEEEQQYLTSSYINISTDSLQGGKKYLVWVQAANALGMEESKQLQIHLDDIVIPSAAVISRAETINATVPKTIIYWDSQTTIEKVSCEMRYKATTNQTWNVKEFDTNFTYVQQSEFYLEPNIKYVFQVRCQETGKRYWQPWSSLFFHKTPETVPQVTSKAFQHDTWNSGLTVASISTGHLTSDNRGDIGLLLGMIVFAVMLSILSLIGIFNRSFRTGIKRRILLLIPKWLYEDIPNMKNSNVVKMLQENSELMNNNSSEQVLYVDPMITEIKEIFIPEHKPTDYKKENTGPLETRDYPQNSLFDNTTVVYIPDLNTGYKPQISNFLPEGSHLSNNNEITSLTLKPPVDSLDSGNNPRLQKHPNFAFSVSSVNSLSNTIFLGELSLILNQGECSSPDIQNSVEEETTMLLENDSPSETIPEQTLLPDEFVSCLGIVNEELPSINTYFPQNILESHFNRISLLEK

[3] = molecular target: T1, human IL-23R endogenously expressed on …; experiment: cell-based or functional assay; remark: listed apart in the source
[4] = molecular target: T2, Nluc-IL23R fusion protein; experiment: BRET competition vs TAMRA-labelled peptide, Nluc-IL23R membranes; remark: listed apart in the source; as to % displacement (hIL-23R binding): test concentration or dose not given here
[5] = molecular target: T1, human IL-23R endogenously expressed on …; experiment: cell-based or functional assay; remark: listed apart in the source
[6] = molecular target: T1, human IL-23R endogenously expressed on …; experiment: cell-based or functional assay; remark: listed apart in the source
[7] = molecular target: T1, human IL-23R endogenously expressed on …; experiment: cell-based or functional assay; remark: listed apart in the source
[8] = molecular target: T2, Nluc-IL23R fusion protein; experiment: BRET competition vs TAMRA-labelled peptide, Nluc-IL23R membranes; remark: listed apart in the source; as to % displacement (hIL-23R binding): test concentration or dose not given here
[9] = molecular target: T2, Nluc-IL23R fusion protein; experiment: as above; remark: listed apart in the source
[10] = molecular target: T2, Nluc-IL23R fusion protein; experiment: Ki from BRET competition (Cheng-Prusoff), Nluc-IL23R membranes

B1: Compound 11 (peptide)
peptide: [4‑Aminomethyl‑phenylacetyl]SEWQ[Dab][AEF][2Nal][αMeL]E[Dab][3Pal][β3hL]-NH2
modifications: lactam N-10, 3-6
SMILES: CC(C)C[C@@H](CC(N)=O)NC(=O)[C@H](Cc1cccnc1)NC(=O)[C@H](CCN)NC(=O)[C@@H]1CCC(=O)NCc2ccc(cc2)CC(=O)N[C@@H](CO)C(=O)N[C@H]2CCC(=O)NCC[C@H](NC(=O)[C@H](CCC(N)=O)NC(=O)[C@H](Cc3c[nH]c4ccccc34)NC2=O)C(=O)N[C@@H](Cc2ccc(OCCN)cc2)C(=O)N[C@@H](Cc2ccc3ccccc3c2)C(=O)N[C@@](C)(CC(C)C)C(=O)N1
IC50 (pSTAT3) [1]: 0.68 nM
% displacement (hIL-23R binding) [2]: 103%
IC50 [2]: 0.024 nM
hIL-23 (pSTAT3) antagonist % inhibition [3]: 98%
hIL-23 (pSTAT3) antagonist IC50 [3]: 0.68 nM

B2: Compound 6 (peptide)
peptide: [4‑Aminomethyl‑phenylacetyl]SEWQ[Dab][AEF][2Nal][αMeL]E[Dab]-{NH(4-(3-pyridyl)butyl)}
modifications: lactam N-10, 3-6
hIL-23 (pSTAT3) antagonist % inhibition [3]: 99%
hIL-23 (pSTAT3) antagonist IC50 [3]: 3.2 nM
% displacement (hIL-23R binding) [4]: 103%
IC50 [4]: 0.037 nM
IC50 (pSTAT3) [5]: 3.2 nM

B3: Compound 3 (peptide)
peptide: [4‑Aminomethyl‑phenylacetyl]SEWQ[Dab][AEF][2Nal][αMeL]E[Dab][αMeAla(3-pyridyl)]-NH2
modifications: lactam N-10, 3-6
SMILES: CC(C)C[C@]1(C)NC(=O)[C@H](Cc2ccc3ccccc3c2)NC(=O)[C@H](Cc2ccc(OCCN)cc2)NC(=O)[C@@H]2CCNC(=O)CC[C@H](NC(=O)[C@H](CO)NC(=O)Cc3ccc(cc3)CNC(=O)CC[C@@H](C(=O)N[C@@H](CCN)C(=O)N[C@@](C)(Cc3cccnc3)C(N)=O)NC1=O)C(=O)N[C@@H](Cc1c[nH]c3ccccc13)C(=O)N[C@@H](CCC(N)=O)C(=O)N2
hIL-23 (pSTAT3) antagonist % inhibition [3]: 98%
hIL-23 (pSTAT3) antagonist IC50 [3]: 1.7 nM
% displacement (hIL-23R binding) [4]: 99%
IC50 (pSTAT3) [6]: 1.7 nM

B4: Compound 4 (peptide)
peptide: [4‑Aminomethyl‑phenylacetyl]SEWQ[Dab][AEF][2Nal][αMeL]E[Dab][NMe3Pal]-NH2
modifications: lactam N-10, 3-6
hIL-23 (pSTAT3) antagonist % inhibition [3]: 100%
hIL-23 (pSTAT3) antagonist IC50 [3]: 6.5 nM
% displacement (hIL-23R binding) [4]: 111%
IC50 [4]: 0.17 nM
IC50 (pSTAT3) [6]: 6.5 nM

B5: Compound 5 (peptide)
peptide: [4‑Aminomethyl‑phenylacetyl]SEWQ[Dab][AEF][2Nal][αMeL]E[Dab][d3Pal]-NH2
modifications: lactam N-10, 3-6
IC50 (pSTAT3) [7]: 2.1 nM
hIL-23 (pSTAT3) antagonist % inhibition [3]: 95%
hIL-23 (pSTAT3) antagonist IC50 [3]: 2.1 nM
% displacement (hIL-23R binding) [4]: 99%

B6: Compound 8 (peptide)
peptide: [4‑Aminomethyl‑phenylacetyl]SEWQ[Dab][AEF][2Nal][αMeL]E[Dab][3Pal]-NHMe
modifications: lactam N-10, 3-6
hIL-23 (pSTAT3) antagonist % inhibition [3]: 101%
hIL-23 (pSTAT3) antagonist IC50 [3]: 0.053 nM
% displacement (hIL-23R binding) [4]: 103%
IC50 (pSTAT3) [6]: 0.053 nM

B7: Compound 9 (peptide)
peptide: [4‑Aminomethyl‑phenylacetyl]SEWQ[Dab][AEF][2Nal][αMeL]E[Dab][3Pal][Sar]-NH2
modifications: lactam N-10, 3-6
SMILES: CC(C)C[C@]1(C)NC(=O)[C@H](Cc2ccc3ccccc3c2)NC(=O)[C@H](Cc2ccc(OCCN)cc2)NC(=O)[C@@H]2CCNC(=O)CC[C@H](NC(=O)[C@H](CO)NC(=O)Cc3ccc(cc3)CNC(=O)CC[C@@H](C(=O)N[C@@H](CCN)C(=O)N[C@@H](Cc3cccnc3)C(=O)N(C)CC(N)=O)NC1=O)C(=O)N[C@@H](Cc1c[nH]c3ccccc13)C(=O)N[C@@H](CCC(N)=O)C(=O)N2
IC50 (pSTAT3) [1]: 0.025 nM
% displacement (hIL-23R binding) [2]: 100%
hIL-23 (pSTAT3) antagonist % inhibition [3]: 97%
hIL-23 (pSTAT3) antagonist IC50 [3]: 0.025 nM

B8: Compound 10 (peptide)
peptide: [4‑Aminomethyl‑phenylacetyl]SEWQ[Dab][AEF][2Nal][αMeL]E[Dab][3Pal][dH]-NH2
modifications: lactam N-10, 3-6
SMILES: CC(C)C[C@]1(C)NC(=O)[C@H](Cc2ccc3ccccc3c2)NC(=O)[C@H](Cc2ccc(OCCN)cc2)NC(=O)[C@@H]2CCNC(=O)CC[C@H](NC(=O)[C@H](CO)NC(=O)Cc3ccc(cc3)CNC(=O)CC[C@@H](C(=O)N[C@@H](CCN)C(=O)N[C@@H](Cc3cccnc3)C(=O)N[C@H](Cc3c[nH]cn3)C(N)=O)NC1=O)C(=O)N[C@@H](Cc1c[nH]c3ccccc13)C(=O)N[C@@H](CCC(N)=O)C(=O)N2
IC50 (pSTAT3) [1]: 0.038 nM
% displacement (hIL-23R binding) [2]: 91%
hIL-23 (pSTAT3) antagonist % inhibition [3]: 99%
hIL-23 (pSTAT3) antagonist IC50 [3]: 0.038 nM

B9: Compound 13 (peptide)
peptide: [4‑Aminomethyl‑phenylacetyl]SEWQ[Dab][AEF][2Nal][αMeL]E[Dab][dH]-NH2
modifications: lactam N-10, 3-6
SMILES: CC(C)C[C@]1(C)NC(=O)[C@H](Cc2ccc3ccccc3c2)NC(=O)[C@H](Cc2ccc(OCCN)cc2)NC(=O)[C@@H]2CCNC(=O)CC[C@H](NC(=O)[C@H](CO)NC(=O)Cc3ccc(cc3)CNC(=O)CC[C@@H](C(=O)N[C@@H](CCN)C(=O)N[C@H](Cc3c[nH]cn3)C(N)=O)NC1=O)C(=O)N[C@@H](Cc1c[nH]c3ccccc13)C(=O)N[C@@H](CCC(N)=O)C(=O)N2
IC50 (pSTAT3) [7]: 6.8 nM
hIL-23 (pSTAT3) antagonist % inhibition [3]: 99%
hIL-23 (pSTAT3) antagonist IC50 [3]: 6.8 nM
% displacement (hIL-23R binding) [4]: 100%

B10: Ref 80 (peptide)
peptide: [4‑Aminomethyl‑phenylacetyl]SCWQC[AEF][2Nal][αMeL]E[dR]-NH2
modifications: lactam N-10; bridge 3-6; not fully specified (bridges); printed as [4-Aminomethyl-phenylacetyl](1c)*SC(2a)WQC(2a)[Y(2-aminoethoxy)][2-Nal][2-Me-Leu]E(1c)[{d}R]-[NH2]
notes: Y = Y(2-aminoethoxy), R = D-Arg
% displacement (hIL-23R binding) [8]: 98%
IC50 [8]: 0.18 nM
hIL-23 (pSTAT3) antagonist % inhibition [3]: 97%
hIL-23 (pSTAT3) antagonist IC50 [3]: 11 nM
IC50 [9]: 0.18 nM
Ki [10]: 0.15 nM

B11: I1 (isomer 3) (peptide)
peptide: H-GCTCWECWWLCS-NH2
modifications: bridge 4-7, 2-11; not fully specified (bridges)
notes: compound from Heinis et al., 2020, synthesised for comparison
% displacement (hIL-23R binding) [8]: 105%
IC50 [8]: 130 nM
hIL-23 (pSTAT3) antagonist % inhibition [3]: 83%
IC50 [9]: 130 nM
Ki [10]: 104 nM

B12: Compound C (peptide)
peptide: XQTWQCYWXENG
modifications: [Ac]-[Abu](16i)QTWQC(16i)[Y(2-aminoethoxy)]W[2-Me-Lys]ENG-[NH2]; (16i) [2,7] thioether bridge (cystathionine); N-terminal acetyl, C-terminal amide
notes: Y = Y(2-aminoethoxy)
% displacement (hIL-23R binding) [8]: 102%
IC50 [8]: 2.6 nM
hIL-23 (pSTAT3) antagonist % inhibition [3]: 99%
hIL-23 (pSTAT3) antagonist IC50 [3]: 13 nM
IC50 [9]: 2.6 nM
Ki [10]: 2.11 nM
